Experimental data: publication PMC4270787 (PLoS ONE, 2014)

B1: PLA2 CM-II from N. kaouthia venom (enzyme)
chain: NLYQFKNMIQCTVPNRSWWDFADYGCYCGRGGSGTPVDDLDRCCQVHDNCYNEAEKISRCWPYFKTYSYECSQGTLTCKGDNDACAAAVCDCDRLAAICFAGAPYNNNNYNIDLKARCQ
B2: PLA2 Vur-PL2 from V. ursinii venom (enzyme)
chain: NLYQFGKMIRYKTGKSALLSYSDYGCYCGWGGQGKPKDATDRCCFVHDCCYGRVNGCDPKLTIYSYSFENGDIVCGGDDSCKRAVCECDRVAAICFGENLNTYDKKYKNYPSSQCTETEQC
B3: PLA2 vurtoxin from V. ursinii venom (enzyme)
chain: SLLEFGMMILEETGKNPLTSYSFYGCYCGVGGKGTPKDATDRCCFVHDCCYGNLPDCNPKIDRYKYHRKNGAIVCGKGTSCENRICECDRAAAICFRKNLKTYNHIYKYYPDFLCKKESEKC

What was measured:
Assay in all cases: radioligand binding
[1] = biological target: acetylcholine-binding protein from Aplysia californica (A. californica)
[2] = biological target: T1, acetylcholine-binding protein from L. stagnalis (L. stagnalis, UniProt P58154 20-229); details: both partners purified
T1 construct: also called L. stagnalis AChBP

[3] = biological target: T2, human neuronal α7 nicotinic acetylcholine receptor (human, UniProt P36544 23-502); details: one partner purified
T2 construct: also called human α7 nAChR; α7 nAChR

[4] = biological target: T3, T. californica muscle-type nicotinic acetylcholine receptor (T. californica, UniProt P02710 25-461; P02712 25-493; P02714 18-506; P02718 22-522); details: one partner purified
T3 construct: also called T. californica nAChR; Torpedo nAChR

Row | Molecule | IC50 [1] [µM] | IC50 [2] [µM] | IC50 [3] [µM] | IC50 [4] [µM]
1 | PLA2 CM-II from N. kaouthia venom (from UniProt P00596 28-146) (enzyme) | > 100 |  |  | 
2 | PLA2 vurtoxin from V. ursinii venom (from UniProt F8QN54 17-138) (enzyme) | > 30 |  |  | 
3 | B1 |  | 1 ± 0.03 | 3.2 ± 0.3 | 1.2 ± 0.1
4 | B2 |  | > 30 | 29 ± 2 | > 100
5 | B3 |  | > 30 | 14 ± 5 | 0.26 ± 0.02
